Values joined by “and” are separate entries in the source; they are usually repeats but may differ in a detail not shown here. Equal values may be shown once.
Assays:
[1] = target: aMLV envelope (from lysed pseudovirus); test: antigen capture ELISA, mAb 7.5 ug/ml, plate 1
[2] = target: BG505 envelope (gp120 monomer released from lysed pseudovirus) (HIV-1); test: antigen capture ELISA, mAb 7.5 ug/ml, plate 1
[3] = target: aMLV envelope (from lysed pseudovirus); test: antigen capture ELISA, mAb 0.8 ug/ml, plate 2
[4] = target: BG505 envelope (gp120 monomer released from lysed pseudovirus) (HIV-1); test: antigen capture ELISA, mAb 0.8 ug/ml, plate 2
[5] = target: HIV-1 JRCSF envelope (HIV-1) (UniProt P20871); test: capture ELISA, plate 2, mAb 2.5 ug/ml
[6] = target: HIV-1 envelope of gp160 clone B-Acute-010.c08 (HIV-1); test: capture ELISA, plate 2, mAb 2.5 ug/ml
[7] = target: HIV-1 envelope clone G-011.c05 (multiclade gp160 clone panel) (HIV-1); test: capture ELISA, plate 2, mAb 2.5 ug/ml
[8] = target: HIV-1 envelope of gp160 clone AG-010.c11 (HIV-1); test: capture ELISA, plate 2, mAb 2.5 ug/ml
[9] = target: HIV-1 16055 envelope (HIV-1); test: capture ELISA, plate 2, mAb 2.5 ug/ml
[10] = target: HIV-1 envelope of gp160 clone B-Acute-009-c08 (HIV-1); test: capture ELISA, plate 2, mAb 2.5 ug/ml
[11] = target: HIV-1 envelope of gp160 clone B-Acute-010.c09 (HIV-1); test: capture ELISA, plate 2, mAb 2.5 ug/ml
[12] = target: HIV-1 JRFL envelope (HIV-1); test: capture ELISA, plate 2, mAb 2.5 ug/ml
[13] = target: HIV-1 envelope of gp160 clone B-Chronic-014.c02 (HIV-1); test: capture ELISA, plate 2, mAb 2.5 ug/ml
[14] = target: HIV-1 JRCSF envelope (HIV-1) (UniProt P20871); test: cell-based or functional assay
[15] = target: HIV-1 envelope of gp160 clone AG-010.c14 (HIV-1); test: cell-based or functional assay
[16] = target: HIV-1 envelope of gp160 clone B-Acute-010.c08 (HIV-1); test: cell-based or functional assay
[17] = target: HIV-1 envelope clone G-011.c05 (multiclade gp160 clone panel) (HIV-1); test: cell-based or functional assay
[18] = target: HIV-1 envelope of gp160 clone AG-010.c11 (HIV-1); test: cell-based or functional assay
[19] = target: HIV-1 envelope of gp160 clone B-Acute-009-c08 (HIV-1); test: cell-based or functional assay
[20] = target: HIV-1 envelope clone G-011.c02 (multiclade gp160 clone panel) (HIV-1); test: cell-based or functional assay
[21] = target: HIV-1 envelope of gp160 clone B-Acute-010.c09 (HIV-1); test: cell-based or functional assay
[22] = target: HIV-1 envelope of gp160 clone B-Chronic-014.c02 (HIV-1); test: cell-based or functional assay
[23] = target: HIV-1 JRCSF envelope (HIV-1) (UniProt P20871); test: capture ELISA, plate 1, mAb 2.5 ug/ml
[24] = target: HIV-1 envelope of gp160 clone B-Acute-008.c11 (HIV-1); test: capture ELISA, plate 1, mAb 2.5 ug/ml
[25] = target: HIV-1 envelope of gp160 clone AG-010.c14 (HIV-1); test: capture ELISA, plate 1, mAb 2.5 ug/ml
[26] = target: HIV-1 envelope of gp160 clone B-Acute-010.c08 (HIV-1); test: capture ELISA, plate 1, mAb 2.5 ug/ml
[27] = target: HIV-1 envelope clone G-011.c05 (multiclade gp160 clone panel) (HIV-1); test: capture ELISA, plate 1, mAb 2.5 ug/ml
[28] = target: HIV-1 envelope of gp160 clone AG-010.c11 (HIV-1); test: capture ELISA, plate 1, mAb 2.5 ug/ml
[29] = target: HIV-1 16055 envelope (HIV-1); test: capture ELISA, plate 1, mAb 2.5 ug/ml
[30] = target: HIV-1 envelope of gp160 clone B-Acute-009-c08 (HIV-1); test: capture ELISA, plate 1, mAb 2.5 ug/ml
[31] = target: HIV-1 envelope clone G-011.c02 (multiclade gp160 clone panel) (HIV-1); test: capture ELISA, plate 1, mAb 2.5 ug/ml
[32] = target: HIV-1 envelope of gp160 clone B-Acute-010.c09 (HIV-1); test: capture ELISA, plate 1, mAb 2.5 ug/ml
[33] = target: HIV-1 JRFL envelope (HIV-1); test: capture ELISA, plate 1, mAb 2.5 ug/ml
[34] = target: HIV-1 envelope of gp160 clone B-Chronic-014.c02 (HIV-1); test: capture ELISA, plate 1, mAb 2.5 ug/ml
[35] = target: HIV-1 envelope clone BF-002.c05 (multiclade gp160 clone panel) (HIV-1); test: capture ELISA, plate 2, mAb 2.5 ug/ml
[36] = target: HIV-1 envelope clone BF-002.c08 (multiclade gp160 clone panel) (HIV-1); test: capture ELISA, plate 2, mAb 2.5 ug/ml
[37] = target: HIV-1 envelope clone F1-002.c16 (multiclade gp160 clone panel) (HIV-1); test: capture ELISA, plate 1, mAb 2.5 ug/ml
[38] = target: HIV-1 envelope clone BF-002.c05 (multiclade gp160 clone panel) (HIV-1); test: capture ELISA, plate 1, mAb 2.5 ug/ml
[39] = target: HIV-1 envelope clone BF-002.c08 (multiclade gp160 clone panel) (HIV-1); test: capture ELISA, plate 1, mAb 2.5 ug/ml
[40] = target: HIV-1 envelope clone F1-002.c11 (multiclade gp160 clone panel) (HIV-1); test: capture ELISA, plate 1, mAb 2.5 ug/ml

| Substance | ELISA OD [1] | ELISA OD [2] [OD] | ELISA OD [3] | ELISA OD [4] [OD] | ELISA OD [5] | ELISA OD [6] [OD] | ELISA OD [7] [OD] | ELISA OD [8] [OD] | ELISA OD [10] [OD] | ELISA OD [11] [OD] | ELISA OD [13] [OD] | ELISA OD [23] | ELISA OD [24] [OD] | ELISA OD [25] [OD] | ELISA OD [26] [OD] | ELISA OD [27] [OD] | ELISA OD [28] [OD] | ELISA OD [30] [OD] | ELISA OD [31] [OD] | ELISA OD [32] [OD] | further results |
| --- | --- | --- | --- | --- | --- | --- | --- | --- | --- | --- | --- | --- | --- | --- | --- | --- | --- | --- | --- | --- | --- |
| PG9 (antibody) | 0.084 OD and 0.072 OD | 0.428 | 0.056 OD and 0.051 OD | 0.261 | 0.177 OD and 0.186 OD | 0.278 | 0.161 | 0.597 | 0.07 | 0.106 | 0.986 | 0.356 OD and 0.338 OD | 0.281 | 0.988 | 0.313 | 0.308 | 0.759 | 0.095 | 0.068 | 0.133 | ELISA OD [9]: 0.225 OD and 0.219 OD; ELISA OD [12]: 0.058 OD and 0.051 OD; PG9 IC50 [14]: 0.002 µg/mL; PG9 IC50 [15]: 0.035 µg/mL; PG9 IC50 [16]: 0.147 µg/mL; PG9 IC50 [17]: 0.098 µg/mL; PG9 IC50 [18]: 0.104 µg/mL; PG9 IC50 [19]: 0.288 µg/mL; PG9 IC50 [20]: > 50 µg/mL; PG9 IC50 [21]: 22.2 µg/mL; PG9 IC50 [22]: 0.039 µg/mL; ELISA OD [29]: 0.364 OD and 0.308 OD; ELISA OD [33]: 0.068 OD and 0.077 OD; ELISA OD [34]: 1.79 OD |
| PG16 (antibody) | 0.103 OD and 0.072 OD | 0.12 | 0.072 OD and 0.064 OD | 0.165 | 0.172 OD and 0.21 OD | 0.171 | 0.126 | 0.272 | 0.07 | 0.155 | 0.374 | 0.206 OD and 0.164 OD | 0.189 | 0.485 | 0.186 | 0.126 | 0.216 | 0.074 | 0.065 | 0.124 | ELISA OD [35]: 0.927 OD; ELISA OD [36]: 0.108 OD; PG16 [14]: 0 µg/mL; PG16 [15]: 0.007 µg/mL; PG16 [16]: 0.015 µg/mL; PG16 [17]: 0.024 µg/mL; PG16 [18]: 0.031 µg/mL; PG16 [19]: 0.202 µg/mL; PG16 [20]: > 50 µg/mL; PG16 [21]: 1.21 µg/mL; PG16 [22]: 0.037 µg/mL; ELISA OD [37]: 0.129 OD; ELISA OD [29]: 0.185 OD and 0.131 OD; ELISA OD [38]: 0.639 OD; ELISA OD [39]: 0.146 OD; ELISA OD [40]: 0.142 OD; ELISA OD [33]: 0.085 OD and 0.088 OD; ELISA OD [34]: 0.398 OD |
| PGT145 (antibody) | 0.098 OD and 0.082 OD | 0.104 | 0.062 OD | 0.066 | 0.173 OD and 0.086 OD | 0.316 | 0.119 | 0.08 | 0.11 | 0.074 | 0.066 | 0.071 OD and 0.061 OD | 0.101 | 0.065 | 0.277 | 0.087 | 0.06 | 0.078 | 0.068 | 0.068 | ELISA OD [9]: 0.079 OD and 0.067 OD; ELISA OD [35]: 0.297 OD; ELISA OD [36]: 0.073 OD; ELISA OD [12]: 0.075 OD and 0.058 OD; PGT145 IC50 [14]: 0.003 µg/mL; PGT145 IC50 [15]: > 50 µg/mL; PGT145 IC50 [16]: 0.032 µg/mL; PGT145 IC50 [17]: 0.115 µg/mL; PGT145 IC50 [18]: 8.27 µg/mL; PGT145 IC50 [19]: 0.007 µg/mL; PGT145 IC50 [20]: 1.8 µg/mL; PGT145 IC50 [21]: 0.294 µg/mL; PGT145 IC50 [22]: 2.22 µg/mL; ELISA OD [37]: 0.316 OD; ELISA OD [29]: 0.115 OD and 0.06 OD; ELISA OD [38]: 0.22 OD; ELISA OD [39]: 0.066 OD; ELISA OD [40]: 0.089 OD; ELISA OD [33]: 0.06 OD; ELISA OD [34]: 0.064 OD |
| PGT151 (antibody) | 0.098 OD and 0.075 OD | 0.094 | 0.054 OD and 0.078 OD | 0.054 | 0.078 OD and 0.068 OD | 0.148 | 0.086 | 0.08 | 0.128 | 0.095 | 0.203 | 0.087 OD and 0.063 OD | 0.152 | 0.164 | 0.243 | 0.073 | 0.062 | 0.076 | 0.067 | 0.06 | ELISA OD [9]: 0.082 OD and 0.076 OD; ELISA OD [35]: 0.174 OD; ELISA OD [36]: 0.067 OD; ELISA OD [12]: 0.098 OD and 0.072 OD; ELISA OD [37]: 0.081 OD; ELISA OD [29]: 0.091 OD and 0.061 OD; ELISA OD [38]: 0.148 OD; ELISA OD [39]: 0.062 OD; ELISA OD [40]: 0.063 OD; ELISA OD [33]: 0.078 OD and 0.06 OD; ELISA OD [34]: 0.206 OD |
| PGV04 (antibody) | 0.092 OD and 0.074 OD | 1.37 | 0.085 OD | 0.745 | 1.87 OD and 2.17 OD | 1.57 | 0.288 | 0.151 | 0.155 | 2.1 | 4 | 1.53 OD and 1.78 OD | 0.059 | 0.241 | 1.34 | 0.256 | 0.136 | 0.123 | 0.601 | 1.73 | ELISA OD [35]: 4 OD; ELISA OD [36]: 2.79 OD; ELISA OD [37]: 0.242 OD; ELISA OD [38]: 4 OD; ELISA OD [39]: 2.2 OD; ELISA OD [40]: 0.145 OD; ELISA OD [34]: 4 OD |

Source: patent US20150065381A1
